Assay results: the DeepSol protein solubility set

experiment: soluble on expression in E. coli; label from the status in PepcDB or PDB records

| Sequence | soluble on expression in E. coli |
| --- | --- |
| MSLQHNELKTPYFMINEDKLIANLEKAKQLKEISGVKLVLALKCFSTWGVFDIIKPYLDGTTSSGPFEVKLGYETFGGETHAYSVGYSEDDVREVADICDKMIFNSQSQLAAYRHIVEGKASIGLRLNPGVSYAGQDLANPARKFSRLGVQADHIKPEVFEGIDGVMFHMNCENKDVDAFIGLLDAISEQFGEYLNKLDWVSMGGGVFFTWPGYDIEKLGLALKAFSEKHGVQMYLEPGEAIITKTTDLVVTVVDIVENVKKTAIVDSATEAHRLDTLIYNEPASILEASDNGEHEYVIGSCSCLAGDQFCVANFDQPLEIGQRLHILDSAGYTMVKLNWFNGLRMPSVYCERSSGEIQKLNEFDYSDFKRSLSEGHHHHHH | not soluble |
| MAHHHHHHMNFLKRNATNICKGKVLGKHLNTSVQELTNLNKRKFSNIINLGKYGQRYQATHSGSIIGAKRFASGEAQKLSEVVKAEVQHEKSNYEAPDNIKKFLQTSGWKFEEQEGDVNMVLTKNVDGMKIIIDFQLVSPFQAEGENEAQAEMTDFSVTVEKPNKQGGITFYCTTLQNDEKFRYMIGNVKYYKNEEGKNSVSAYNGPEFEDLDDSLQTSLDEWLANLGVDSELCDFIDSCSIDKEQREYMSWLQNISNFIES | soluble |
| MAHHHHHHMKTCKTGIQKVRDVSEATVLVLDWFERRNKPATPQSLADALGSRVAKSLLQKILEQLHAEEKLHVKDMKKIRFYYRRVLPLSDADGATTTKQHSEPEDDPAATTGERGNAVNVPEVCGGAETCAESPADAHAALLHAVAISAVQLSERSLRLTRWRGWPSSTERADKYADLAREVCELRNSLERLQSRHAGESAEAHGGGSWTSRVRRAVCRYRRARRHWVQRKDWAMCLLEATAGDAHTPLQAAALLGCTTDAEAGVSFEDTAVALPAPLMRELNLSQR | not soluble |
| MGSDKIHHHHHHMASILAVDVGTTSIKAGIVSTENFEAESTQSTRAVVEYPKKHWAEKDPEKLWNSIVEVCKPLAEKANPDAIVFGAHMAGVVPVDGEGNALRNIITWLDERAAGLPEDVWKGLIKIQGYSLTKLIKFLRLTGGAPSRTGKDPISKIVWIRENEPDVFGKTFKMLDVRGYLVARATGNFVTSPDEAHLTWLADTRGGKARWSESILKDYALSASLFPEIKNCTEIAGYLRPEVRKEFGLEGDVPVMVGSGDVAAAAVGSGAVKDYECHIYVGTSDWVAAHIPQRKTDIFHFIGSLLSAIPEKYLLIAEQEVAAGALEWAMRLVGIQGEYELVKELVEKAPAGKLIFMPWFYGERAPIDDPYVRGGLVNVGLDSGREEVLRAMMEGVALNIKWVFGYVEKMTAPQQMVSIVGGGALFDIWCQIISNAVRRPLRRIKHPEETGLRGLATMAAVGLGEESFESAAAKFEVDRVFKPDDEEAKVYDRLFEYYKELYSKLKKVYRKLNSAEY | not soluble |
| MKIKTILTPVTCALLISFSAHATNADNYKNVINRTGAPQYMKDYDYDDHQRFNPFFDLGAWHGHLLPDGPNTMGGFPGVALLTEEYINFMASNFDRLTVWQDGKKVNFTLEAYNIPGALVQKLTAKDVQVEMTLRFATPRTSLLETKIISNKPLDLVWDGELLEKLEAKEGKPLSDKTIAGEYPDYQRKISATRDGLKVTFGKVRATWDLLTSGESEYQVHKSLPVQTEINGNRFTSKAHINGSTTLYTTYSHLLTSQEVSKEQMQIRDILARPAFYLTASQQRWEEYLKKGLTNPDATPEQTRVAVKAIETLNGNWRSPGGAVKYNTVTPSVTGRWFSGNQTWPWDTWKQAFAMAHFNPDIAKENIRAVFSWQIQPGDSVRPQDVGFVPDLIAWNLSPERGGDGGNWNERNTKPSLAAWSVMEVYNVTQDKTWVAEMYPKLVAYHDWWLRNRDHNGNGVPEYGATRDKAHNTESGEMLFTVKKGNKEETQSGLNNYARVVEKGQYDSLEIPAQVAASWESGRDDAAVFGFIDKEQLDKYVASGGKRSDWTVKFAENRSQDGTLLGYSLLQESVDQASYMYSDNHYLAEMATILGKPEEAKRYRQLAQQLADYINTCMFDPATQYFYDVRIEDKPLANGCAGKPIVERGKGPEGWSPLFNGAATQANADAVVKVMLDPKEFNTFVPLGTAALTNPAFGADIYWRGRVWVDQFWFGLKGMERYGYRDDALKLADTFFRHAKGLTADGPIQENYNPLTGAQQGAPNFSWSAAHFYMLYNDFFRKQ | not soluble |
